Results on two molecules are retold here after patent US20200317807A1.

One assay deals with T1, CD70 (human) (UniProt P32970).
T1 sequence: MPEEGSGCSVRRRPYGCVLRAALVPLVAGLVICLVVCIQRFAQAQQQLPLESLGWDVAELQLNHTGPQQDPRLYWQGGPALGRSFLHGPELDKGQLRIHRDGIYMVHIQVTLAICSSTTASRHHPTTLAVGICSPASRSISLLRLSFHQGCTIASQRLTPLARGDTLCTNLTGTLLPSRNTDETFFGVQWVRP
In words: cell-based or functional assay.

The target in another assay is mouse CD70 (mouse) (UniProt O55237). Nature of the assay: cell-based or functional assay.
Chain of UniProt O55237 (O55237 whole entry): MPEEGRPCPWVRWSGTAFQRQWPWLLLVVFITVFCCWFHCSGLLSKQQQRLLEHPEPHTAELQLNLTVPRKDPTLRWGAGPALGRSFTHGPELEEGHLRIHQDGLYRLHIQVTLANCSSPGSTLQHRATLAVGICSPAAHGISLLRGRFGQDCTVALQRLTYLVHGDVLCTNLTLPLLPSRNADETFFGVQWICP

B1: full length (f) CD27-CD3ζ CAR (full-length human CD27 and a human CD3ζ T cell intracellular signaling domain) (receptor)
chain: ATPAPKSCPERHYWAQGKLCCQMCEPGTFLVKDCDQHRKAAQCDPCIPGVSFSPDHHTRPHCESCRHCNSGLLVRNCTITANAECACRNGWQCRDKECTECDPLPNPSLTARSSQALSPHPQPTHLPYVSEMLEARTAGHMQTLADFRQLPARTLSTHWPPQRSLCSSDFIRILVIFSGMFLVFTLAGALFLHQRRKYRSNKGESPVEPAEPCRYSCPREEEGSTIPIQEDYRKPEPACSPRVKFSRSADAPAYQQGQNQLYNELNLGRREEYDVLDKRRGRDPEMGGKPRRKNPQEGLYNELQKDKMAEAYSEIGMKGERRRGKGHDGLYQGLSTATKDTYDALHMQALPPR
In the assay with CD70 (human), B1 came in with an IFN-γ (pg/ml), co-culture with 624/CD70 (CD70 Positive) of 6480 pg/mL; an IFN-γ (pg/ml), co-culture with RCC 1581 (CD70 Pos) of 11800 pg/mL; an IFN-γ (pg/ml), co-culture with RCC 2095R (CD70 Pos) of 5820 pg/mL; an IFN-γ (pg/ml), co-culture with RCC 2219R (CD70 Pos) of 12100 pg/mL. In the assay with CD70 (human), this molecule showed an IFN-γ (pg/ml), co-culture with RCC 2245R (CD70 Pos) of 9110 pg/mL; an IFN-γ (pg/ml), co-culture with RCC 2246R (CD70 Pos) of 8220 pg/mL; an IFN-γ (pg/ml), co-culture with RCC 2261R (CD70 Pos) of 7270 pg/mL; an IFN-γ (pg/ml), co-culture with RCC 2361R (CD70 Pos) of 2260 pg/mL. For the same molecule, in the assay with CD70 (human), the IFN-γ (pg/ml), co-culture with RCC 2654R (CD70 Pos) amounted to 7890 pg/mL and the IFN-γ (pg/ml), co-culture with RCC 2657R (CD70 Pos) came to 3510 pg/mL.

B2: mCD27-CD3ζ CAR (full-length mouse CD27 and a mouse CD3ζ T cell intracellular signaling domain) (receptor)
chain: PNSCPDKHYWTGGGLCCRMCEPGTFFVKDCEQDRTAAQCDPCIPGTSFSPDYHTRPHCESCRHCNSGFLIRNCTVTANAECSCSKNWQCRDQECTECDPPLNPALTRQPSETPSPQPPPTHLPHGTEKPSWPLHRQLPNSTVYSQRSSHRPLCSSDCIRIFVTFSSMFLIFVLGAILFFHQRRNHGPNEDRQAVPEEPCPYSCPREEEGSAIPIQEDYRKPEPAFYPRAKFSRSAETAANLQDPNQLYNELNLGRREEYDVLEKKRARDPEMGGKQQRRRNPQEGVYNALQKDKMAEAYSEIGTKGERRRGKGHDGLYQGLSTATKDTYDALHMQTLAPR
B2 returned an IFN-γ (pg/ml), mouse T cells/mCD27-CD3ζ CAR co-cultured with B16/mCD70 in the assay with mouse CD70 (mouse) of 642000 pg/mL.
